Measured values taken from paper PMC12416549 (2024).
Positions count from the first letter of the chain named. In names and notes the source's numbering stands.

T1: TNFR1 (Homo sapiens, UniProt P19438)
T1 chain: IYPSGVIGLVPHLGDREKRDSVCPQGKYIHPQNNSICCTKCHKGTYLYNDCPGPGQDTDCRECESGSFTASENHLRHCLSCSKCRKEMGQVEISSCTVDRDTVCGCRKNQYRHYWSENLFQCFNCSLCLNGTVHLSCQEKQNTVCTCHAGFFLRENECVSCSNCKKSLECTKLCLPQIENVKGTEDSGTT

B1: A106N (designed binder)
chain: MTLQELLREEALRRAEAEAFRYALELLAEKFPEQKEYLLDLAEEIESQIRSLSGVDVEDVRKFLDKEWAWVKELLAEHPAELAEVEAARAARLAELRAEVEAKVAN
B2: E33S (designed binder)
chain: B1 chain with E33S, N106A
B3: A28M (designed binder)
chain: B1 chain with A28M, N106A
B4: E81N (designed binder)
chain: B1 chain with E81N, N106A
B5: A91E (designed binder)
chain: B1 chain with A91E, N106A
B6: A76S (designed binder)
chain: B1 chain with A76S, N106A
B7: R13T (designed binder)
chain: B1 chain with R13T, N106A
B8: E101V (designed binder)
chain: B1 chain with E101V, N106A
B9: A80D (designed binder)
chain: B1 chain with A80D, N106A
B10: A11T (designed binder)
chain: B1 chain with A11T, N106A
B11: V60C (designed binder)
chain: B1 chain with V60C, N106A
B12: E95M (designed binder)
chain: B1 chain with E95M, N106A
B13: A11K (designed binder)
chain: B1 chain with A11K, N106A
B14: T2E (designed binder)
chain: B1 chain with T2E, N106A
B15: V104W (designed binder)
chain: B1 chain with V104W, N106A
B16: V57M (designed binder)
chain: B1 chain with V57M, N106A
B17: Q34G (designed binder)
chain: B1 chain with Q34G, N106A
B18: V57G (designed binder)
chain: B1 chain with V57G, N106A
B19: D56M (designed binder)
chain: B1 chain with D56M, N106A
B20: E101T (designed binder)
chain: B1 chain with E101T, N106A
B21: R50W (designed binder)
chain: B1 chain with R50W, N106A
B22: E77L (designed binder)
chain: B1 chain with E77L, N106A
B23: F31T (designed binder)
chain: B1 chain with F31T, N106A
B24: L6R (designed binder)
chain: B1 chain with L6R, N106A
B25: A83W (designed binder)
chain: B1 chain with A83W, N106A
B26: V55W (designed binder)
chain: B1 chain with V55W, N106A
B27: L3C (designed binder)
chain: B1 chain with L3C, N106A
B28: K72V (designed binder)
chain: B1 chain with K72V, N106A
B29: E46W (designed binder)
chain: B1 chain with E46W, N106A
B30: T2R (designed binder)
chain: B1 chain with T2R, N106A
B31: M1V (designed binder)
chain: B1 chain with M1V, N106A
B32: F31C (designed binder)
chain: B1 chain with F31C, N106A
B33: A76L (designed binder)
chain: B1 chain with A76L, N106A
B34: A88L (designed binder)
chain: B1 chain with A88L, N106A
B35: V100N (designed binder)
chain: B1 chain with V100N, N106A
B36: R13V (designed binder)
chain: B1 chain with R13V, N106A
B37: R61D (designed binder)
chain: B1 chain with R61D, N106A
B38: E29M (designed binder)
chain: B1 chain with E29M, N106A
B39: D56R (designed binder)
chain: B1 chain with D56R, N106A
B40: L96H (designed binder)
chain: B1 chain with L96H, N106A
B41: E33A (designed binder)
chain: B1 chain with E33A, N106A
B42: H78D (designed binder)
chain: B1 chain with H78D, N106A
B43: A83L (designed binder)
chain: B1 chain with A83L, N106A
B44: E18M (designed binder)
chain: B1 chain with E18M, N106A
B45: W70I (designed binder)
chain: B1 chain with W70I, N106A
B46: A102C (designed binder)
chain: B1 chain with A102C, N106A
B47: I45Y (designed binder)
chain: B1 chain with I45Y, N106A
B48: A15P (designed binder)
chain: B1 chain with A15P, N106A
B49: A42D (designed binder)
chain: B1 chain with A42D, N106A
B50: E84T (designed binder)
chain: B1 chain with E84T, N106A
B51: A91M (designed binder)
chain: B1 chain with A91M, N106A
B52: V100F (designed binder)
chain: B1 chain with V100F, N106A
B53: E10D (designed binder)
chain: B1 chain with E10D, N106A
B54: A102R (designed binder)
chain: B1 chain with A102R, N106A
B55: Y22W (designed binder)
chain: B1 chain with Y22W, N106A
B56: T2L (designed binder)
chain: B1 chain with T2L, N106A
B57: L93M (designed binder)
chain: B1 chain with L93M, N106A
B58: L96T (designed binder)
chain: B1 chain with L96T, N106A
B59: K72Y (designed binder)
chain: B1 chain with K72Y, N106A

Biological target: T1, TNFR1
Assay: yeast display SC50

Binder | apparent Kd (screen) [nM]
B1 | 1.69
B2 | 0.49
B3 | 9.41
B4 | 0.539
B5 | 0.593
B6 | 0.49
B7 | 0.335
B8 | 0.539
B9 | 0.49
B10 | 0.593
B11 | 0.79
B12 | 0.446
B13 | 0.539
B14 | 2.73
B15 | 0.869
B16 | 2.48
B17 | 0.593
B18 | 1.86
B19 | 0.956
B20 | 1.05

Binder | apparent Kd (screen) [nM]
B21 | 2.73
B22 | 0.446
B23 | 0.593
B24 | 12.5
B25 | 0.49
B26 | 1.16
B27 | 12.5
B28 | 0.593
B29 | 0.368
B30 | 0.956
B31 | 0.539
B32 | 0.653
B33 | 0.49
B34 | 0.49
B35 | 0.593
B36 | 0.335
B37 | 11.4
B38 | 0.539
B39 | 2.25
B40 | 0.49

Binder | apparent Kd (screen) [nM]
B41 | 0.208
B42 | 0.593
B43 | 0.446
B44 | 0.49
B45 | 13.8
B46 | 0.539
B47 | 1.86
B48 | 2.73
B49 | 1.86
B50 | 0.49
B51 | 0.869
B52 | 0.49
B53 | 0.539
B54 | 0.446
B55 | 0.49
B56 | 0.49
B57 | 0.539
B58 | 0.49
B59 | 0.593
